This assay deals with long form of human LepR (LepRb), full length, on HEK293T cells (human) (UniProt P48357). Put plainly: flow cytometry on cells. (In general: A flow cytometer gives signals particle by particle.)
UniProt P48357, sequence (P48357 22-1165): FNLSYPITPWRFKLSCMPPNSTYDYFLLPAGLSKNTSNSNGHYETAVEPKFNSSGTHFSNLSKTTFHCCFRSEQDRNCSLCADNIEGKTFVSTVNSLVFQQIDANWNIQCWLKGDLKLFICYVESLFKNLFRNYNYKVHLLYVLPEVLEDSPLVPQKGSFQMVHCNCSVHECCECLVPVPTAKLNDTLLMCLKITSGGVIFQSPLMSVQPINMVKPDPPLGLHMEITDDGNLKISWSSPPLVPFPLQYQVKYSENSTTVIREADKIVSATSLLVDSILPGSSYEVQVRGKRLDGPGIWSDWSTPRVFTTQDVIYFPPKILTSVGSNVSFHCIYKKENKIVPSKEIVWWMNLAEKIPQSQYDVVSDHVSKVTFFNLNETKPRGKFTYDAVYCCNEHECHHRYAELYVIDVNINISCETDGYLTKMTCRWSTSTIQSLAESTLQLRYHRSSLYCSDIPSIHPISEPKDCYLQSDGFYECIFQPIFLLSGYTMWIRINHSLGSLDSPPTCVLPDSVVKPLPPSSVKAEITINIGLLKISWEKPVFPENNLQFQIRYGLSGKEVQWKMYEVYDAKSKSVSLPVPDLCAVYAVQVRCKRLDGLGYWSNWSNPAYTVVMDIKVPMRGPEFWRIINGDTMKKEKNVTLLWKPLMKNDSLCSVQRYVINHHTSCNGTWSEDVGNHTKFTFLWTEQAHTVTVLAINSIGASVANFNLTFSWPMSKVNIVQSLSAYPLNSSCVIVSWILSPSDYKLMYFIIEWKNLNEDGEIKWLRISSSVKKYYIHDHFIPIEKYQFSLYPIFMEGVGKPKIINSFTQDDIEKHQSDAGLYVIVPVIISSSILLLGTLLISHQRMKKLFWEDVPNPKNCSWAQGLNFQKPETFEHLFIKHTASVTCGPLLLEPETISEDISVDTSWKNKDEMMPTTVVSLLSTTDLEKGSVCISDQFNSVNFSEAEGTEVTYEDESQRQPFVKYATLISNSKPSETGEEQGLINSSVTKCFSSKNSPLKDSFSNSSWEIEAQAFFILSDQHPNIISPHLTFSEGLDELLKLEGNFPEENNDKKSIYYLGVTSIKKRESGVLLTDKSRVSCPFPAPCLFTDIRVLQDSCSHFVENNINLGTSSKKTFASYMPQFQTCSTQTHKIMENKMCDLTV

Turning to FITC-labeled rASRA (natural protein), the Kd (commonly the constant that tells how readily two partners part at equilibrium) was determined as 2.2 nM.

The values are drawn from paper PMC10515849.
